# Target: T1, TNF-α (UniProt P01375 77-233, limits assumed)
# T1 construct: also called tumor necrosis factor; ligand
# Experiment: competition ELISA: sample vs plate-bound TNFRI190 for TNF-α, from IC50, relative to wild-type TNFRI126
# Procedure: (§1) Each well was washed three times with 300 μL of washing buffer (0.05% Tween-20, PBS, pH 7.4) and incubated at room temperature for 2 hours with 300 μL of a blocking buffer (5% skim milk, PBS, pH 7.4). Then, each well was washed as mentioned above. A sample of interest was diluted to concentrations of 500 nM, 125 nM, 31 nM, 7.8 nM, 1.9 nM, 0.48 nM, 0.12 nM, and 0.03 nM in series and loaded in an amount of 100 μL into each well in duplicate. To each well was added 100 μL of 50 ng/ml TNF-α, followed by incubation at room temperature for 2 hours. After the wells were washed with a washing buffer, 100 μg/mL anti-TNF-α antibody solution was diluted 1/1000, added in an amount of 100 μL per each well, and incubated at room temperature for 2 hours. After the plates were washed with a washing buffer, a substrate was added in an amount of 100 μL to each well and reacted at room temperature for 15 min. In each well, 100 μL of the substrate 3,3′,5,5′-tetramethylbenzidine (RnD, Cat. No: DY999) was reacted at room temperature for 15 min, followed by adding 50 μL of 1.0 M sulfuric acid (Samchun Chemical, Cat. No: 52129) to each well to stop the reaction.
# Affinity of Met-TNFRI and Met-TNFRI mutants for TNF-α was determined by measuring an absorbance change with concentration and evaluating IC₅₀ value by measuring an absorbance change with concentration.
# T1 sequence (P01375 77-233 limits assumed): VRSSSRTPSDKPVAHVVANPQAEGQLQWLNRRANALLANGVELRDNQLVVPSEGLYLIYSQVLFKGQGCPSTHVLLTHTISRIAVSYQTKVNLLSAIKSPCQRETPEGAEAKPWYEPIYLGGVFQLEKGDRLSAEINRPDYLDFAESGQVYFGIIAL
row,Binder,Affinity (%)
1,"TNFRI126-A16 (receptor, Met-TNFRI126 mutant made in E. coli) MDSVCPQGKYIHPQNNSICCTKCHKGTYLYNDCPGPGQDTDCRECESGSFTAKENFLPACLSCSKCRKEMGQVEISSCTVDRDTVCGCRKNQYRHYWSENLFQCFNCSLCLNGTVHLSCQEKQNTVC",882
2,"TNFRI126-A20 (receptor, Met-TNFRI126 mutant made in E. coli) MDSVCPQGKYIHPQNNSICCTKCHKGTYLYNDCPGPGQDTDCRECESGSFTAEENFLPACLSCSKCRKEMGQVEISSCTVDRDTVCGCRKNQYRHYWSENLFQCFNCSLCLNGTVHLSCQEKQNTVC",782
3,"TNFRI126-A24 (receptor, Met-TNFRI126 mutant made in E. coli) MDSVCPQGKYIHPQNNSICCTKCHKGTYLYNDCPGPGQDTDCRECESGSFTAIPNFLIACLSCSKCRKEMGQVEISSCTVDRDTVCGCRKNQYRHYWSENLFQCFNCSLCLNGTVHLSCQEKQNTVC",1060
4,"TNFRI126-A25 (receptor, Met-TNFRI126 mutant made in E. coli) MDSVCPQGKYIHPQNNSICCTKCHKGTYLYNDCPGPGQDTDCRECESGSFTAIPNFLFACLSCSKCRKEMGQVEISSCTVDRDTVCGCRKNQYRHYWSENLFQCFNCSLCLNGTVHLSCQEKQNTVC",682
5,"TNFRI126-A30 (receptor, Met-TNFRI126 mutant made in E. coli) MDSVCPQGKYIHPQNNSICCTKCHKGTYLYNDCPGPGQDTDCRECESGSFTAIPNFLPACLSCSKCRKEMGQVEISSCTVDRDTVCGCRKNQYRHYWSENLFQCFNCSLCLNGTVHLSCQEKQNTVC",952
6,"TNFRI126-A18 (receptor, Met-TNFRI126 mutant made in E. coli) MDSVCPQGKYIHPQNNSICCTKCHKGTYLYNDCPGPGQDTDCRECESGSFTAHENFLPACLSCSKCRKEMGQVEISSCTVDRDTVCGCRKNQYRHYWSENLFQCFNCSLCLNGTVHLSCQEKQNTVC",1010
7,"TNFRI126-A23 (receptor, Met-TNFRI126 mutant made in E. coli) MDSVCPQGKYIHPQNNSICCTKCHKGTYLYNDCPGPGQDTDCRECESGSFTAIPNFLLACLSCSKCRKEMGQVEISSCTVDRDTVCGCRKNQYRHYWSENLFQCFNCSLCLNGTVHLSCQEKQNTVC",1100
8,"TNFRI126-A19 (receptor, Met-TNFRI126 mutant made in E. coli) MDSVCPQGKYIHPQNNSICCTKCHKGTYLYNDCPGPGQDTDCRECESGSFTADENFLPACLSCSKCRKEMGQVEISSCTVDRDTVCGCRKNQYRHYWSENLFQCFNCSLCLNGTVHLSCQEKQNTVC",482
9,"TNFRI126-A29 (receptor, Met-TNFRI126 mutant made in E. coli) MDSVCPQGKYIHPQNNSICCTKCHKGTYLYNDCPGPGQDTDCRECESGSFTAIPNFLFGCLSCSKCRKEMGQVEISSCTVDRDTVCGCRKNQYRHYWSENLFQCFNCSLCLNGTVHLSCQEKQNTVC",435
10,"TNFRI126-A27 (receptor, Met-TNFRI126 mutant made in E. coli) MDSVCPQGKYIHPQNNSICCTKCHKGTYLYNDCPGPGQDTDCRECESGSFTAIPNFLLGCLSCSKCRKEMGQVEISSCTVDRDTVCGCRKNQYRHYWSENLFQCFNCSLCLNGTVHLSCQEKQNTVC",894

# Results, then the binder that gave them:
row,Affinity (%),Binder
1,1430,"TNFRI126-A22 (receptor, Met-TNFRI126 mutant made in E. coli) MDSVCPQGKYIHPQNNSICCTKCHKGTYLYNDCPGPGQDTDCRECESGSFTAMENFLPGCLSCSKCRKEMGQVEISSCTVDRDTVCGCRKNQYRHYWSENLFQCFNCSLCLNGTVHLSCQEKQNTVC"
2,1140,"TNFRI126-A26 (receptor, Met-TNFRI126 mutant made in E. coli) MDSVCPQGKYIHPQNNSICCTKCHKGTYLYNDCPGPGQDTDCRECESGSFTAIPNFLPGCLSCSKCRKEMGQVEISSCTVDRDTVCGCRKNQYRHYWSENLFQCFNCSLCLNGTVHLSCQEKQNTVC"
3,1400,"TNFRI126-A21 (receptor, Met-TNFRI126 mutant made in E. coli) MDSVCPQGKYIHPQNNSICCTKCHKGTYLYNDCPGPGQDTDCRECESGSFTAIENFLPGCLSCSKCRKEMGQVEISSCTVDRDTVCGCRKNQYRHYWSENLFQCFNCSLCLNGTVHLSCQEKQNTVC"
4,771,"TNFRI126-A17 (receptor, Met-TNFRI126 mutant made in E. coli) MDSVCPQGKYIHPQNNSICCTKCHKGTYLYNDCPGPGQDTDCRECESGSFTARENFLPACLSCSKCRKEMGQVEISSCTVDRDTVCGCRKNQYRHYWSENLFQCFNCSLCLNGTVHLSCQEKQNTVC"

# Target: T1, TNF-α
# Experiment: as above
# Remark: another data set of the same source
# Procedure: as §1
# The affinity of the Met-TNFRI for TNF-α was assayed using the same procedure as in [Experimental Example 1]
row,Binder,Relative Affinity for Ligand (%)
1,"TNFRI126-S59 (receptor, Met-TNFRI126 superlead mutant made in E. coli) MDSVCPQGKYIHPQNNSICCTKCHKGTYVYNDCPGPGQDTDCRECESGSFTAHENFLPACLSCSKCRKEMGQVEISSCTVDRDTVCGCRKNQYRHYWSENLFQCFNCSLCLNGTVHLSCQEQQNTVC",463
2,"TNFRI126-S41 (receptor, Met-TNFRI126 superlead mutant made in E. coli) MDSVCPQGKYIHPQNNSICCTKCHKGTYVYNDCPGPGQDTDCRECESGSFTAHENFLPACLSCSKCRKEMGQVEISSCTVDRDTVCGCRKNQYRHYWSENLFQCFNCSLCLNGTVHLSCQEKQNTVC",432
3,"TNFRI126-S48 (receptor, Met-TNFRI126 superlead mutant made in E. coli) MDSVCPQGKYIHPQNNSICCTKCHKGTYVYNDCPGPGQDTDCRECESGSFTAIPNFLPGCLSCSKCRKEMGQVEISSCTVDRDTVCGCRKNQYRHYWSENLFQCFNCSLCLNGTVHLSCQEKQNTVC",477
4,"TNFRI126-S36 (receptor, Met-TNFRI126 superlead mutant made in E. coli) MDSVCPQGKYIHPQNNSICCTKCHKGTYVYNDCPGPGQDTDCRECESGSFTAMENFLPACLSCSKCRKEMGQVEISSCTVDRDTVCGCRKNQYRHYWSENLFQCFNCSLCLNGTVHLSCQEKQNTVC",489
5,"TNFRI126-S46 (receptor, Met-TNFRI126 superlead mutant made in E. coli) MDSVCPQGKYIHPQNNSICCTKCHKGTYVYNDCPGPGQDTDCRECESGSFTAIENFLPGCLSCSKCRKEMGQVEISSCTVDRDTVCGCRKNQYRHYWSENLFQCFNCSLCLNGTVHLSCQEKQNTVC",412
6,"TNFRI126-S56 (receptor, Met-TNFRI126 superlead mutant made in E. coli) MDSVCPQGKYIHPQNNSICCTKCHKGTYVYNDCPGPGQDTDCRECESGSFTAMENFLPACLSCSKCRKEMGQVEISSCTVDRDTVCGCRKNQYRHYWSENLFQCFNCSLCLNGTVHLSCQEQQNTVC",602
7,"TNFRI126-S47 (receptor, Met-TNFRI126 superlead mutant made in E. coli) MDSVCPQGKYIHPQNNSICCTKCHKGTYVYNDCPGPGQDTDCRECESGSFTAMENFLPGCLSCSKCRKEMGQVEISSCTVDRDTVCGCRKNQYRHYWSENLFQCFNCSLCLNGTVHLSCQEKQNTVC",501
8,"TNFRI126-S62 (receptor, Met-TNFRI126 superlead mutant made in E. coli) MDSVCPQGKYIHPQNNSICCTKCHKGTYVYNDCPGPGQDTDCRECESGSFTAIENFLPGCLSCSKCRKEMGQVEISSCTVDRDTVCGCRKNQYRHYWSENLFQCFNCSLCLNGTVHLSCQEQQNTVC",543
9,"TNFRI126-S31 (receptor, Met-TNFRI126 superlead mutant made in E. coli) MDSVCPQGKYIHPQNNSICCTKCHKGTYVYNDCPGPGQDTDCRECESGSFTAIENFLPACLSCSKCRKEMGQVEISSCTVDRDTVCGCRKNQYRHYWSENLFQCFNCSLCLNGTVHLSCQEKQNTVC",457

# More lines, now with the values ahead:
row,Relative Affinity for Ligand (%),Binder
1,448,"TNFRI126-S54 (receptor, Met-TNFRI126 superlead mutant made in E. coli) MDSVCPQGKYIHPQNNSICCTKCHKGTYVYNDCPGPGQDTDCRECESGSFTAIENFLPACLSCSKCRKEMGQVEISSCTVDRDTVCGCRKNQYRHYWSENLFQCFNCSLCLNGTVHLSCQENQNTVC"
2,522,"TNFRI126-S53 (receptor, Met-TNFRI126 superlead mutant made in E. coli) MDSVCPQGKYIHPQNNSICCTKCHKGTYVYNDCPGPGQDTDCRECESGSFTAIENFLPACLSCSKCRKEMGQVEISSCTVDRDTVCGCRKNQYRHYWSENLFQCFNCSLCLNGTVHLSCQEQQNTVC"
3,397,"TNFRI126-S60 (receptor, Met-TNFRI126 superlead mutant made in E. coli) MDSVCPQGKYIHPQNNSICCTKCHKGTYVYNDCPGPGQDTDCRECESGSFTAHENFLPACLSCSKCRKEMGQVEISSCTVDRDTVCGCRKNQYRHYWSENLFQCFNCSLCLNGTVHLSCQENQNTVC"
4,465,"TNFRI126-S57 (receptor, Met-TNFRI126 superlead mutant made in E. coli) MDSVCPQGKYIHPQNNSICCTKCHKGTYVYNDCPGPGQDTDCRECESGSFTAMENFLPACLSCSKCRKEMGQVEISSCTVDRDTVCGCRKNQYRHYWSENLFQCFNCSLCLNGTVHLSCQENQNTVC"

# Reference: patent US20120277142A1 (HANALL BIOPHARMA, published 2012)
